Measurements as given in patent US20140112930A1 (published 2014).
Positions count from the first letter of the chain named.

Columns and labels:
Assay in all cases: SPR 25C, hAng-2FD-mFc captured on anti-mFc, 100 nM analyte
[1] = biological target: T1, wild-type Ang-2FD-mFc construct (human, UniProt O15123 282-496)
T1 construct: also called WT; hAng-2FD-mFc; not shown: mouse Fc
T1 sequence: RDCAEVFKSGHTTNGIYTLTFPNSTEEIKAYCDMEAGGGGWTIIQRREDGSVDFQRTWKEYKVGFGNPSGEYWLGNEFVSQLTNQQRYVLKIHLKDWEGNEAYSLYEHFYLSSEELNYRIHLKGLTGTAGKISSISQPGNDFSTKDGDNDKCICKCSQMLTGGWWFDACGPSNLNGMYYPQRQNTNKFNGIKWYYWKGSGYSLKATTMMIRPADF

[2] = biological target: T2, hAng-2FD-mFc S-417-I (human, UniProt O15123 282-496)
T2 construct: not shown: mouse Fc
T2 chain: T1 sequence with S136I

[3] = biological target: T3, hAng-2FD-mFc K-432-N (human, UniProt O15123 282-496)
T3 construct: not shown: mouse Fc
T3 chain: T1 sequence with K151N

[4] = biological target: T4, hAng-2FD-mFc I-434-M (human, UniProt O15123 282-496)
T4 construct: not shown: mouse Fc
T4 chain: T1 sequence with I153M

[5] = biological target: T5, hAng-2FD-mFc F-469-L (human, UniProt O15123 282-496)
T5 construct: not shown: mouse Fc
T5 chain: T1 sequence with F188L

[6] = biological target: T6, hAng-2FD-mFc Y-475-H (human, UniProt O15123 282-496)
T6 construct: not shown: mouse Fc
T6 chain: T1 sequence with Y194H

[7] = biological target: T7, hAng-2FD-mFc S-480-P (human, UniProt O15123 282-496)
T7 construct: not shown: mouse Fc
T7 chain: T1 sequence with S199P

Kd [1]: 0.0398 nM
RU [1]: 213 RU
T ½ [1]: 15.1 h
Kd [2]: 0.0512 nM
RU [2]: 127 RU
T ½ [2]: 26.5 h
Kd [3]: 0.0487 nM
RU [3]: 137 RU
T ½ [3]: 28.2 h
Kd [4]: 0.0318 nM
RU [4]: 213 RU
T ½ [4]: 43.1 h
Kd [5]: 0.195 nM
RU [5]: 180 RU
T ½ [5]: 3.95 h
Kd [6]: 0.306 nM
RU [6]: 247 RU
T ½ [6]: 2.27 h
Kd [7]: 0.0225 nM
RU [7]: 228 RU
T ½ [7]: 35.5 h
B1: H1H744N (antibody, V domains shown)
VH: QVQLVQSGVEVKKPGASVKVSCKTSGYTFSNNGFSWVRQAPGQGLEWLGWISGYNGNTNYAQKFQGRVTMTTDTSTSTAYMELRTLRSDDTAVYYCARDQDYSNFHWLDPWGQGTLVTVAS
VL: DIQMTQSPSSVSASVGDRVIITCRASQGLSSWLAWYQQKPGTAPKLLIHSASSLQTGVPSRFSGSGSGTEFALTINSLQPEDFGTYYCQQANSFPLTFGGGTRVEIK
